According to paper PMC10581170:

The sequences below were run against T1, CzcR (His6-CzcR) (Pseudomonas aeruginosa PAO1?) (UniProt Q9RLJ1) (assay: EMSA).
T1 sequence: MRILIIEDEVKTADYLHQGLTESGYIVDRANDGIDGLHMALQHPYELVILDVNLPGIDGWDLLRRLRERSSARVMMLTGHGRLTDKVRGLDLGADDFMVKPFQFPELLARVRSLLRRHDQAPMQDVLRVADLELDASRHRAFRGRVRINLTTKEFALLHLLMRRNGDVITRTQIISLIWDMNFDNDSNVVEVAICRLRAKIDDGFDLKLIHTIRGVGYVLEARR

Row | Sequence | binding
1 | GAATCCACCTGAAACCCACGCCCAGCAAGGCCTATAGCACTAATCACAGACGCCCTTGACCTCAACTTAACTTGAGGTTTTATAGTCCCCGCTGCGGTCATACCGCCCCGTTTCCCCAGGACCACGAACCGCCCCCACGGCCGCTTCGCGGCGCCGGATGGCGACCAGCACAAGGAACGACCCATGCAGCGCTTC (double strand) [mexGHI-opmD promoter probe (PmexG)] | binds
2 | GATAACCGGCCATCGAGCTAAAACGTTTCAGGTGTTTTCACGCGAGGCTTTCGGACGTTTACAAACACCTATGAATGTAAGTATTTTGCCTGCCTTCTTCGAGCCGGTGCAGCGCCTTCACGCTGCATCGGCCGCTTTCGCTCATGAGGACAACGCTATGCAACGAAC (double strand) [mexAB-oprM promoter probe (PmexA)] | binds
3 | GCAACCGTTCGGAACATTCTTCCCGTCGGGGGTAGGCGAGCGACTTGCCCTGTGGAATAATACTGTCTACTTATACAGTTGTTCGTGGCCGTCCGGCCGCCCTGACTTCGCGAGGACTTCAATGGA (double strand) [recA promoter fragment (PrecA)] | no binding
